The supplement of paper PMC11246515
± gives the standard deviation of the averaged measurements.

Assay: total protein half-life in vivo (active degradation + dilution); higher = more stable protein
[1] = E. coli NCM3722 delta-clpP delta-lon delta-hslV, growth: N-lim chemostat, doubling time 6 h
[2] = E. coli NCM3722 delta-clpP, growth: N-lim chemostat, doubling time 6 h
[3] = E. coli NCM3722 delta-hslV, growth: N-lim chemostat, doubling time 6 h
[4] = E. coli NCM3722 delta-lon, growth: N-lim chemostat, doubling time 6 h
[5] = E. coli NCM3722 delta-smpB, growth: N-lim chemostat, doubling time 6 h
[6] = wild type E. coli NCM3722, growth: C-lim chemostat, doubling time 3 h
[7] = wild type E. coli NCM3722, growth: C-lim chemostat, doubling time 6 h
[8] = wild type E. coli NCM3722, growth: C-lim chemostat, doubling time 12 h
[9] = wild type E. coli NCM3722, growth: N-lim chemostat, doubling time 6 h
[10] = wild type E. coli NCM3722, growth: N-lim chemostat, doubling time 12 h
[11] = wild type E. coli NCM3722, growth: P-lim chemostat, doubling time 6 h
[12] = wild type E. coli NCM3722, growth: P-lim chemostat, doubling time 12 h

Sequence	total protein half-life in vivo [1] [h]	total protein half-life in vivo [2] [h]	total protein half-life in vivo [3] [h]	total protein half-life in vivo [4] [h]	total protein half-life in vivo [5] [h]	total protein half-life in vivo [6] [h]	total protein half-life in vivo [7] [h]	total protein half-life in vivo [8] [h]	total protein half-life in vivo [9] [h]	total protein half-life in vivo [10] [h]	total protein half-life in vivo [11] [h]	total protein half-life in vivo [12] [h]
MTDNTYQPAKVWTWDKSAGGAFANINRPVSGPTHEKTLPVGKHPLQLYSLGTPNGQKVTIMLEELLALGVTGAEYDAWLIRIGDGDQFSSGFVEVNPNSKIPALRDHTHNPPIRVFESGSILLYLAEKFGYFLPQDLAKRTETMNWLFWLQGAAPFLGGGFGHFYHYAPVKIEYAINRFTMEAKRLLDVLDKQLAQHKFVAGDEYTIADMAIWPWFGNVVLGGVYDAAEFLDAGSYKHVQRWAKEVGERPAVKRGRIVNRTNGPLNEQLHERHDASDFETNTEDKRQG	5.11 ± 0.38	5.1 ± 0.095	4.77 ± 0.093	5.02 ± 0.099	4.78 ± 0.57	3.18 ± 0.21	5.63 ± 0.16	9.78 ± 2.2	5.31 ± 0.2	9.72 ± 3.6	5.6 ± 0.21	11.8 ± 0.8
MTDQSHQCVIIGIAGASASGKSLIASTLYRELREQVGDEHIGVIPEDCYYKDQSHLSMEERVKTNYDHPSAMDHSLLLEHLQALKRGSAIDLPVYSYVEHTRMKETVTVEPKKVIILEGILLLTDARLRDELNFSIFVDTPLDICLMRRIKRDVNERGRSMDSVMAQYQKTVRPMFLQFIEPSKQYADIIVPRGGKNRIAIDILKAKISQFFE [P0A8F4]	5.42 ± 0.4	4.6 ± 0.34		4.87 ± 1.3	4.376 ± 0.027	2.86 ± 0.035	5.074 ± 0.037	9.37 ± 0.41	4.36 ± 0.07	6.72 ± 0.17	5.11 ± 0.44	9.61 ± 2.1
MTDVLLCVGNSMMGDDGAGPLLAEKCAAAPKGNWVVIDGGSAPENDIVAIRELRPTRLLIVDATDMGLNPGEIRIIDPDDIAEMFMMTTHNMPLNYLIDQLKEDIGEVIFLGIQPDIVGFYYPMTQPIKDAVETVYQRLEGWEGNGGFAQLAVEEE [P0AEV9]	4.89	4.16	3.67 ± 0.094	4.17	3.72 ± 0.15	3.29 ± 0.42	5.01 ± 0.2	8.74	4.6	6.23		9.42 ± 0.22
MTEHTSSYYAASANKYAPFDTLNESITCDVCVVGGGYTGLSSALHLAEAGFDVVVLEASRIGFGASGRNGGQLVNSYSRDIDVIEKSYGMDTARMLGSMMFEGGEIIRERIKRYQIDCDYRPGGLFVAMNDKQLATLEEQKENWERYGNKQLELLDANAIRREVASDRYTGALLDHSGGHIHPLNLAIGEADAIRLNGGRVYELSAVTQIQHTTPAVVRTAKGQVTAKYVIVAGNAYLGDKVEPELAKRSMPCGTQVITTERLSEDLARSLIPKNYCVEDCNYLLDYYRLTADNRLLYGGGVVYGARDPDDVERLVVPKLLKTFPQLKGVKIDYRWTGNFLLTLSRMPQFGRLDTNIYYMQGYSGHGVTCTHLAGRLIAELLRGDAERFDAFANLPHYPFPGGRTLRVPFTAMGAAYYSLRDRLGV		6.23	5.96 ± 0.34	3.84 ± 1.7		0.265	6.7	4.55	1.81	6.25 ± 7.7		
MTEIYEQAKHSLQGEDFSSFNYLFAVNKLLSNPVSYDLGRDLIVRALDSRERFSEHTTILKNMVRKSGLFPYLKKEFTSLTPDDLRVLELYRTPFSDGYVFHSMQFHIFDLLKSGQNVVLSAPTSMGKSAIVDSLLGMGTLKRLVLVVPTVALADETRRRLQERFGDRYQIIHHSSQVCHSDQAVYVLTQERVNERDDIVDIDLFVIDEFYKLAFRQLKSGDIDHQDERVIELNIALSKLLKVSRQFYLTGPFVNSIRGLEKLGYPHTFVSTDFNTVALDVKTFGIKANDDKAKLKALGEIAHACVDATIIYCKSPTVAGLVARELIRLGHGTPTENPHVDWVSEEFDADWDYTVALRNGIGLHFGALPRALQQYTADQFNAGKLRFLLCTSTIIEGVNTIAKNVVIYDNRDGTRSIDKFTHGNIKGRAGRMGVHFVGKIFCLEEIPEDNLNQEVDIPLGIQGIDTPINLLASVQPDHLSEFSQDRFDEVFINDRVSIDLVKKHSYFRVEQFEMLQSMFEMMDDNEFSSLVFHWTPATNFLKTFAKIIARLVPHTFSRNGVPVKPTDVMIAKLAGYLSAESYSEYLKNQIDYARQWISEGEKRTLSIALNNDLKLITNTFGYTLPKVLSLMEDVVKHHAVKRGIRSKVDYTHVKLAFESFHLPPGVNALEEIGIPIQTLHRLVDLLEFSDEADVDELSQYLRDTQDIWSRSIGYVDQMFIRRALGIRRH	6.27 ± 1.3											
MTEMAKGSVTHQRLIALLSQEGADFRVVTHEAVGKCEAVSEIRGTALGQGAKALVCKVKGNGVNQHVLAILAADQQADLSQLASHIGGLRASLASPAEVDELTGCVFGAIPPFSFHPKLKLVADPLLFERFDEIAFNAGMLDKSVILKTADYLRIAQPELVNFRRTA	5.051 ± 0.048	7.68	3.84 ± 0.28	5.17 ± 0.12	3.6 ± 0.12	3.19 ± 0.52	4.895 ± 0.03	8.13 ± 0.88	3.564 ± 0.0078	5.88 ± 0.3	4.71 ± 0.58	8.83 ± 0.85
